Laboratory results published in patent US20180172683A1, “METHODS FOR ANALYZING THE INTERACTION BETWEEN A TARGET PROTEIN AND A LIGAND” (UNIVERSITY OF SOUTHERN CALIFORNIA, priority 2015, published 2018).
Several values for one entry are separate records, joined by “and”; a condition that tells them apart may be missing. Equal values may be shown once.

Key:
[1] = biological target: B-cell lymphoma extra-large protein (Bcl-xL), first 209 amino acids with N-terminal avitag (UniProt Q07817); assay: Kd1 (free mAb to Bcl-xL), divalent model, forward and reverse equilibrium assays combined, known [L]0
B-cell lymphoma extra-large protein (Bcl-xL), first 209 amino acids with N-terminal avitag, sequence (Q07817 other isoform, or with tags, fused parts or gaps): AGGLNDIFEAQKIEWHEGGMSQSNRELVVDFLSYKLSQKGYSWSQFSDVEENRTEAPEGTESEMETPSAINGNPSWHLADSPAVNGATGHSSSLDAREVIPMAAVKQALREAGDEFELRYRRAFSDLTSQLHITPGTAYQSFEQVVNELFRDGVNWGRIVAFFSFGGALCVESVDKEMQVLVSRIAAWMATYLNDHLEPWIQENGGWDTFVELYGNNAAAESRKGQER

[2] = biological target: B-cell lymphoma extra-large protein (Bcl-xL), first 209 amino acids with N-terminal avitag (UniProt Q07817); assay: forward equilibrium assay, Kd-only fit, divalent model
[3] = biological target: B-cell lymphoma extra-large protein (Bcl-xL), first 209 amino acids with N-terminal avitag (UniProt Q07817); assay: Kd2 (monovalently bound mAb to a second Bcl-xL), divalent model, reverse assay only, Kd and [L]0 fit simultaneously
[4] = biological target: B-cell lymphoma extra-large protein (Bcl-xL), first 209 amino acids with N-terminal avitag (UniProt Q07817); assay: forward equilibrium assay, Kd-only fit, monovalent model (said to fit poorly)
[5] = biological target: B-cell lymphoma extra-large protein (Bcl-xL), first 209 amino acids with N-terminal avitag (UniProt Q07817); assay: reverse equilibrium assay, divalent model; percent of monovalently bound mAb that does not interact with immobilized Bcl-xL
[6] = biological target: B-cell lymphoma extra-large protein (Bcl-xL), first 209 amino acids with N-terminal avitag (UniProt Q07817); assay: forward equilibrium assay, Kd and [L]0 fit simultaneously, monovalent and divalent models
[7] = biological target: B-cell lymphoma extra-large protein (Bcl-xL), first 209 amino acids with N-terminal avitag (UniProt Q07817); assay: equilibrium AMMP, divalent model
[8] = biological target: B-cell lymphoma extra-large protein (Bcl-xL), first 209 amino acids with N-terminal avitag (UniProt Q07817); assay: Kd2 (monovalently bound mAb to a second Bcl-xL), divalent model, reverse assay only, known [L]0
[9] = biological target: B-cell lymphoma extra-large protein (Bcl-xL), first 209 amino acids with N-terminal avitag (UniProt Q07817); assay: Kd1 (free mAb to Bcl-xL), divalent model, forward and reverse equilibrium assays combined, Kd and [L]0 fit simultaneously
[10] = biological target: B-cell lymphoma extra-large protein (Bcl-xL), first 209 amino acids with N-terminal avitag (UniProt Q07817); assay: equilibrium ELISA, divalent model

**Q.** What does the source list for “54H6 monoclonal antibody against Bcl-xL (commercial)”?
**A.** Kd [1]: 21 pM; Kd [2]: 14 pM; Kd [3]: 4000 pM; Kd [4]: 38 pM; percent of monovalently bound mAb not interacting with immobilized Bcl-xL [5]: 74% and 73%; Kd [6]: 11 pM; Kd [7]: 12 pM; Kd [8]: 3300 pM; Kd [9]: 19 pM; Kd [10]: 20 pM
